Target: AbaAlkX Y300F (Acinetobacter baumannii, UniProt A0A0D5YK62 1-385, Y300F;V301L)
Experiment: EMSA; 10 nM DNA; binding unaffected relative to WT
Details: protein: recombinant; tags: His6-SUMO tag cleaved (3C); label: Cy5 on strand 1; FAM on strand 2 (both printed at 5' end); blunt; covalently crosslinked strands

B1: 2F-NM8-ICL DNA (dsDNA)
DNA 1: TTTATTTTTATTTGACTTTTATTTTT
DNA 2: AAAAATAAAAGTCAAATAAAAATAAA
- binding result: binds

Reference: paper doi:10.64898/2025.12.11.693820, “DNA binding and lesion recognition by the bacterial interstrand DNA crosslink glycosylase AlkX”
